# Data taken from patent publication US20210388087A1 (Chugai, published 2021).
# Substitutions are numbered along the chain they refer to. Names and notes keep the numbering of the source.
# T1: Human CD3eg linker (human)
# T1 construct: Single-chain construct; also called recombinant human CD3
# T1 chain: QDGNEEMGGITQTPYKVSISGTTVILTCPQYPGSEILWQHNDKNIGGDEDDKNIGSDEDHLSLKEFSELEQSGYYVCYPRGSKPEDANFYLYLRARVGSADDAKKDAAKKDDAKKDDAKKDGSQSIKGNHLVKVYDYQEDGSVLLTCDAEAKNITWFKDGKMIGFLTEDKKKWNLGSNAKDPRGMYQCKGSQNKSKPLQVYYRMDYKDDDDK
# B1: H183/L072 VL N30A (antibody, name in Kabat numbering, V domains shown)
# VH: QVQLVESGGGLVQPGRSLRLSCAASGFTFSNAWMHWVRQAPGKGLEWVAQIKDKGNAYAAYYAPSVKGRFTISRDDSKNSIYLQMNSLKTEDTAVYYCHYVHYASASTVLPAFGVDAWGQGTTVTVSS
# VL: DIVMTQSPLSLPVTPGEPASISCQASQELVHMNRATYLHWYQQKPGQAPRLLIYKVSNRFPGVPDRFSGSGSGTDFTLKISRVEAEDVGVYYCAQGTSVPFTFGQGTKLEIK
# B2: H183/L072 VL N53S (antibody, name in Kabat numbering, V domains shown)
# VH: B1 VH
# VL: B1 VL with A35N, N58S
# B3: H183/L072 VL N53L (antibody, name in Kabat numbering, V domains shown)
# VH: B1 VH
# VL: B1 VL with A35N, N58L
# B4: H183/L072 VL N53K (antibody, name in Kabat numbering, V domains shown)
# VH: B1 VH
# VL: B1 VL with A35N, N58K
# B5: H183/L072 VL N30K (antibody, name in Kabat numbering, V domains shown)
# VH: B1 VH
# VL: B1 VL with A35K
# B6: H183/L072 VL P56N (antibody, name in Kabat numbering, V domains shown)
# VH: B1 VH
# VL: B1 VL with A35N, P61N
# B7: H183/L072 VL N30M (antibody, name in Kabat numbering, V domains shown)
# VH: B1 VH
# VL: B1 VL with A35M
# B8: H183/L072 VL N53F (antibody, name in Kabat numbering, V domains shown)
# VH: B1 VH
# VL: B1 VL with A35N, N58F
# B9: H183/L072 VL P56F (antibody, name in Kabat numbering, V domains shown)
# VH: B1 VH
# VL: B1 VL with A35N, P61F
# B10: H183/L072 VL N30I (antibody, name in Kabat numbering, V domains shown)
# VH: B1 VH
# VL: B1 VL with A35I
# B11: H183/L072 VL N30W (antibody, name in Kabat numbering, V domains shown)
# VH: B1 VH
# VL: B1 VL with A35W
# B12: H183/L072 VL N53W (antibody, name in Kabat numbering, V domains shown)
# VH: B1 VH
# VL: B1 VL with A35N, N58W
# B13: H183/L072 VL N53E (antibody, name in Kabat numbering, V domains shown)
# VH: B1 VH
# VL: B1 VL with A35N, N58E
# B14: H183/L072 VL N30T (antibody, name in Kabat numbering, V domains shown)
# VH: B1 VH
# VL: B1 VL with A35T
# B15: H183/L072 VL P56M (antibody, name in Kabat numbering, V domains shown)
# VH: B1 VH
# VL: B1 VL with A35N, P61M
# B16: H183/L072 VL N30D (antibody, name in Kabat numbering, V domains shown)
# VH: B1 VH
# VL: B1 VL with A35D
# B17: H183/L072 VL P56K (antibody, name in Kabat numbering, V domains shown)
# VH: B1 VH
# VL: B1 VL with A35N, P61K
# B18: H183/L072 VL P56A (antibody, name in Kabat numbering, V domains shown)
# VH: B1 VH
# VL: B1 VL with A35N, P61A
# B19: H183/L072 VL N53P (antibody, name in Kabat numbering, V domains shown)
# VH: B1 VH
# VL: B1 VL with A35N, N58P
# B20: H183/L072 VL N30G (antibody, name in Kabat numbering, V domains shown)
# VH: B1 VH
# VL: B1 VL with A35G
# B21: H183/L072 VL N53Q (antibody, name in Kabat numbering, V domains shown)
# VH: B1 VH
# VL: B1 VL with A35N, N58Q
# B22: H183/L072 VL P56L (antibody, name in Kabat numbering, V domains shown)
# VH: B1 VH
# VL: B1 VL with A35N, P61L
# B23: H183/L072 VL N53A (antibody, name in Kabat numbering, V domains shown)
# VH: B1 VH
# VL: B1 VL with A35N, N58A
# B24: H183/L072 VL P56Q (antibody, name in Kabat numbering, V domains shown)
# VH: B1 VH
# VL: B1 VL with A35N, P61Q
# B25: H183/L072 VL N30E (antibody, name in Kabat numbering, V domains shown)
# VH: B1 VH
# VL: B1 VL with A35E
# B26: H183/L072 VL N30F (antibody, name in Kabat numbering, V domains shown)
# VH: B1 VH
# VL: B1 VL with A35F
# B27: H183/L072 VL N53V (antibody, name in Kabat numbering, V domains shown)
# VH: B1 VH
# VL: B1 VL with A35N, N58V
# B28: H183/L072 VL N30H (antibody, name in Kabat numbering, V domains shown)
# VH: B1 VH
# VL: B1 VL with A35H
# B29: H183/L072 VL P56G (antibody, name in Kabat numbering, V domains shown)
# VH: B1 VH
# VL: B1 VL with A35N, P61G
# B30: H183/L072 VL N30R (antibody, name in Kabat numbering, V domains shown)
# VH: B1 VH
# VL: B1 VL with A35R
# B31: H183/L072 VL P56E (antibody, name in Kabat numbering, V domains shown)
# VH: B1 VH
# VL: B1 VL with A35N, P61E
# B32: H183/L072 VL N53G (antibody, name in Kabat numbering, V domains shown)
# VH: B1 VH
# VL: B1 VL with A35N, N58G
# B33: H183/L072 VL N53H (antibody, name in Kabat numbering, V domains shown)
# VH: B1 VH
# VL: B1 VL with A35N, N58H
# B34: H183/L072 VL P56I (antibody, name in Kabat numbering, V domains shown)
# VH: B1 VH
# VL: B1 VL with A35N, P61I
# B35: H183/L072 VL N30V (antibody, name in Kabat numbering, V domains shown)
# VH: B1 VH
# VL: B1 VL with A35V
# B36: H183/L072 VL N30Y (antibody, name in Kabat numbering, V domains shown)
# VH: B1 VH
# VL: B1 VL with A35Y
# B37: H183/L072 VL N53D (antibody, name in Kabat numbering, V domains shown)
# VH: B1 VH
# VL: B1 VL with A35N, N58D
# B38: H183/L072 VL N30S (antibody, name in Kabat numbering, V domains shown)
# VH: B1 VH
# VL: B1 VL with A35S
# B39: H183/L072 VL N30L (antibody, name in Kabat numbering, V domains shown)
# VH: B1 VH
# VL: B1 VL with A35L
# B40: H183/L072 VL P56H (antibody, name in Kabat numbering, V domains shown)
# VH: B1 VH
# VL: B1 VL with A35N, P61H
# B41: H183/L072 VL P56D (antibody, name in Kabat numbering, V domains shown)
# VH: B1 VH
# VL: B1 VL with A35N, P61D
# B42: H183/L072 VL N53R (antibody, name in Kabat numbering, V domains shown)
# VH: B1 VH
# VL: B1 VL with A35N, N58R
# B43: H183/L072 VL N53T (antibody, name in Kabat numbering, V domains shown)
# VH: B1 VH
# VL: B1 VL with A35N, N58T
# B44: H183/L072 VL N53M (antibody, name in Kabat numbering, V domains shown)
# VH: B1 VH
# VL: B1 VL with A35N, N58M
# B45: H183/L072 VL N30Q (antibody, name in Kabat numbering, V domains shown)
# VH: B1 VH
# VL: B1 VL with A35Q
# Molecular target: T1, Human CD3eg linker
# Assay: SPR; fold vs parent H183/L072
row,fold change of affinity,Binder
1,0.3 fold,B1
2,0.9 fold,B2
3,0.6 fold,B3
4,1.4 fold,B4
5,1.3 fold,B5
6,3.3 fold,B6
7,1.6 fold,B7
8,0.7 fold,B8
9,3.3 fold,B9
10,0.5 fold,B10
11,0.9 fold,B11
12,0.7 fold,B12
13,0.5 fold,B13
14,0.1 fold,B14
15,3.9 fold,B15
16,0.1 fold,B16
17,5.6 fold,B17
18,4.1 fold,B18
19,0.6 fold,B19
20,0 fold,B20
21,0.8 fold,B21
22,3.1 fold,B22
23,0.6 fold,B23

row,fold change of affinity,Binder
1,3.7 fold,B24
2,0.3 fold,B25
3,0.9 fold,B26
4,0.3 fold,B27
5,0.8 fold,B28
6,3.7 fold,B29
7,1.5 fold,B30
8,3.4 fold,B31
9,0.6 fold,B32
10,1.2 fold,B33
11,3.1 fold,B34
12,0.5 fold,B35
13,0.8 fold,B36
14,0.2 fold,B37
15,0 fold,B38
16,0.5 fold,B39
17,2.9 fold,B40
18,3 fold,B41
19,1.8 fold,B42
20,0.4 fold,B43
21,0.9 fold,B44
22,1.2 fold,B45
